# Measured values: the nanobody polyreactivity screen of Harvey et al. (2022)
# Experiment: yeast display, Sf9 membrane polyspecificity reagent, FACS + sequencing; frameworks hold sequencing errors
# Method in brief: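 Nanobodies from a synthetic yeast display library (Saccharomyces cerevisiae BJ5465), induced 36–48 hours with galactose, were stained 1 hour at 4 °C with 10% biotinylated, detergent-solubilized Sf9 membrane reagent, enriched on streptavidin microbeads, then FACS-sorted. Anti-HA (expression) and streptavidin (reagent binding) fluorescence set low and high (top ~1%) gates. Polyreactivity labels come from the gate of origin. Genes were colony-PCR amplified, MiSeq 2 × 250 sequenced and filtered by CDR length.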
row,Sequence,polyreactivity (PSR sort gate)
1,QVQLVESGGGLVQAGGSLRLSCADSGFTFIKYAMGWYRQAPGKEREFVATISWNGGNTYYADSVKGRFTISRDNAKNTVYLQMNSLKPEDTAVYYCAARVKYRTRGGTVVSYDYWGQGPQVTVSS,high polyreactivity
2,QVQLVESGGGLVQAGGSLRLSCADSGFTFRYNAMGWYRQAPGKERELVAAISRSGGRTYYADSVKGRFTISRDNAKNTVYLQMNSLKPEDSAVYYCAAVAARITGYGYWGQGTQVTVSS,high polyreactivity
3,QVQLVESGGGLVQAGGSLRLSCADSGFTFVAYAMGWYRQAPGKERELVAVISRGGSTYYADSVKGRFTISRDNAKNTVYLQMNSLKPEDTAVYYCAATYIHSYGKFYYWGQGTQLTVSS,low polyreactivity
4,QVQLVESGGGLVQAGGSLRLSCADSGFTFYYSAMGWYRQAPGKEREVVAAISWGGGTTYYADSVKGRFTISRDNAKNTVYLQMNSLKPEDTAVFYCNAASSLPGYDYWGQGTQVTVSS,high polyreactivity
5,QVQLVESGGGLVQAGGSLRLSCADSGIIFYVYAMGWYRPAPGKEREWVAAISSGGRTKYADSVKGRFTISRDNAKNTVYLQMNSLKPEDTAVYYCAAKSVRRRLGYWGQGTQVTVSS,high polyreactivity
6,QVQLVESGGGLVQAGGSLRLSCADSGIISIFNVIGWYRQAPGKERELVASITGRGGSTFYADSVKGRFTISRDNAKNTVYLQMNILKPEDTAVYYCATDTGYTYPVTGLYDYWGQGTQVTVSS,low polyreactivity
7,QVQLVESGGGLVQAGGSLRLSCADSGITFFTYAMGRYRQAPGKERELVAAISGSGGSTYYADYVKWRFTISRDNAKNTVYLQMNSLKPEDTEVYYCAAEYTYGSPYDYWGQGTQVTVSS,low polyreactivity
8,QVQLVESGGGLVQAGGSLRLSCADSGITFGLYAMGWYRQAPGKERELVAAISSSGGRTYYADSVKGRFTISRDIAKKTVYLQMYSLKPEDTAVYVCATDTDGFAANRPAGDGDWGQGTQVTVSS,high polyreactivity
9,QVQLVESGGGLVQAGGSLRLSCADSGITFWRYAMGWYRHAPGKERELVAAISWSGGNTYYADSVKGRFTISRDNAKNTVYLQMNSLKPEDTAVYYCATSRTYVIYDYWGQGTQVTVSS,low polyreactivity
10,QVQLVESGGGLVQAGGSLRLSCADSGLIFGYYAMGGYRQAPGKERELVAAITSSGTSTYYADSVKGRFTISRDNAKNTVYLQMNSLKPEDTAVYYCAAQYIGKKRFNYWGQGTQVTVSS,high polyreactivity
11,QVQLVESGGGLVQAGGSLRLSCADSGLTFSVYTMGWYRQAPGKERELVAAITTSGGRTYYADSVKGRFTISRDNAKNTVYLQKNSLKPEDTAVYYCAAVRTGDTTGTMGYWGQGTQVTVSS,high polyreactivity
12,QVQLVESGGGLVQAGGSLRLSCADSGNIFSWYAMGWYRQAPGKERELVAAITWSGGTTYYADSVKGRFTISRDNAKNTVYLQMNSLKPEDTAVYYCAVFSRYRSGYYSWGQGTQVTVSS,high polyreactivity
13,QVQLVESGGGLVQAGGSLRLSCADSGRIFRDYAMGWYRQAPGKERELVAAISRSGGSTYYADSVKGRFTISRDNAKNTVYLQVNSLKPEDTAVFYCAAKYYYGGNGYWGQGTQVTVSS,low polyreactivity
14,QVQLVESGGGLVQAGGSLRLSCADSGRIFYSYTRGWYRPAPGKERELVAAIRKSGGRTYYADSVKGRFTISRDNAKNTVYLQMNSLKPEDTAVYYCATTNYELSYYYWGQGTQVTVSS,high polyreactivity
15,QVQLVESGGGLVQAGGSLRLSCADSGRIIYLNAMGLYRQAPGKERELVAAITRSAASTHYADSVKGRFTISRDNAKNTVYLQMNSLKPEDTAVYYCNARGYPKSWRYSRGYEYWGQGTQVTVSS,low polyreactivity
16,QVQLVESGGGLVQAGGSLRLSCADSGRTFKSYAMGWYRQAPGKERELVAAISSSGGRTFYADSVKGRFTISRDNAKNTVYLQMNSLKPEDTAVYYCNARGFYRGYTYYYWGQGTQVTVSS,high polyreactivity
17,QVQLVESGGGLVQAGGSLRLSCADSGRTFQRHARGWYRKAPGKEREFVAAISKSGGRTYYADSVKGRFTISRDTAKNTVSLQMNSLKPEDTAVYYCNRGSTHDLSHPELYGYWGQGTQVTVSS,high polyreactivity
18,QVQLVESGGGLVQAGGSLRLSCADSGRTFVSNAMGWYRQAPGKERELVAAISGSGGITYYADSVKGRFTISRDNAKNTVYLQMNSLKPEDTAVYYCNADSSGWFPFDYWGQGTQVTVSS,low polyreactivity
19,QVQLVESGGGLVQAGGSLRLSCADSGRTFWGYSMGCYRQAPGKERELVAAITWNGGRTYYADSVKGRFTISRDNAKNTVYLQMNSLKPEDTAVYYCAAGYPRFGYDYWGQGTQVTVSS,high polyreactivity
20,QVQLVESGGGLVQAGGSLRLSCADSGRTFWSNAMGWYRQAPGKERELVARIDSTYYADSVKGRFTISRDNAKNTVYLQMNSLKPEDTAVYYCNADTIYYAGDFRYDYWGQGTQVTVSS,low polyreactivity
21,QVQLVESGGGLVQAGGSLRLSCADSGRTFYGNARGWYRQAPGKERELVAAISISGGSTYYADSVKGRFTISRDNAKNTVYLQMNSLKPEDTAVYYCNAQEYYYYPYVYDSDYWGQGTQVTVSS,low polyreactivity
22,QVQLVESGGGLVQAGGSLRLSCADSGRTFYYYAMGWYRQAPGKEREFVAAITTRGGSTYYADSVKGRFTISRDNAKNTVYLQMNSLTPEDTAVYYCAARYTGRQGVYKTYYYWGQGTQVTVSS,high polyreactivity

row,Sequence,polyreactivity (PSR sort gate)
1,QVQLVESGGGLVQAGGSLRLSCADSGRTIGLNGMGWYRQAPGKERELVAGISWTGGSTNYADSVKGRFTFSRDNEKNTVYLQINSLKPEDTAVYYCAADFVYYVVNDFGWSYAYEYWGQGTQVTVSS,low polyreactivity
2,QVQLVESGGGLVQAGGSLRLSCADSGSIFDQYTMGWYRQAPGKERELVAGISSGGITNYADSVKGRFTISRDNAKNTVYLQMNSLKPEDTAVYYCAADNWYLAEYDYWGQGTQVTVSS,low polyreactivity
3,QVQLVESGGGLVQAGGSLRLSCADSGSIFEFNTMGWYRQAPGKERELVAAISSADTTNYADSVKGRFTISRDNAKNTVYLQMNSLKPEDTAVYYCNKELHLSATLRVLGFDYWGQGTQVTVSS,low polyreactivity
4,QVQLVESGGGLVQAGGSLRLSCADSGSIFFPYAMGWYRQAPGKERYLVAAISSGTSTYYADSVKGRFTISRDNAKNTVYLQMNSLKPEDTAVFYCNARHRRGRFTHDYDYWGQGTQVTVSS,low polyreactivity
5,QVQLVESGGGLVQAGGSLRLSCADSGSIFGPYAMGWYRQAPGKEREFVAAISRSGTRTNYADSVKGRFTISRDNAKNTVYLQMNSLKPEDTAVYYCNARYVSASRNRGKSRYDYWGLGTQVTVSS,high polyreactivity
6,QVQLVESGGGLVQAGGSLRLSCADSGSIFLIYAMGWYRQAPGKERELVATINRGDNTYYADSVKGRFTISRDNAKITVYLQMYSLKPEDTADGYWGQGTQVTGSS,low polyreactivity
7,QVQLVESGGGLVQAGGSLRLSCADSGSIFLRYAMGWYRQAPGKERELVAAISCRGGSTYYADSVKGRFTISRDNAKNTVYLQMNSQKPEDTAVYYCAAYRGRSLEYDYWGQGTQVNVSS,high polyreactivity
8,QVQLVESGGGLVQAGGSLRLSCADSGSIFTSNGMGWYRHAPGKERELVAAITSGTSTYYADSVKGRFTISRDNAKNTVYLQMNSLKPEDTAVYYCAAGRWWVYRYARYYYWGQGTQVTVSS,high polyreactivity
9,QVQLVESGGGLVQAGGSLRLSCADSGSIFVAYAMRWYRPAPGKERELVAAISSSGGTTYYADSVKGRFTISRDNAKNTVYLQMNSLKPEDTAVYYSAARDYKYYYWGQGTQVTVSS,high polyreactivity
10,QVQLVESGGGLVQAGGSLRLSCADSGSIFYVYAMGWYRQAPGKERELVATISSSAGSTYYADSVKGRFTISRDNAKNTVYLQMNSLKPEDTAVYYCNADSFLSWVYRYVYYGSGYWGQGTQVTVSS,low polyreactivity
11,QVQLVESGGGLVQAGGSLRLSCADSGSILIYNAMGWYRQAPGKERELVAGISRRGASTYYADSVKGRFTISRDNAKNTVSLQMNSLKQEDTAVYYCAALGKYIVAWSGDYWGQGTQVTVSS,low polyreactivity
12,QVQLVESGGGLVQAGGSLRLSCADSGSTFDSYAMGWYRQAPGKERELVASITSRGGRTYYADSVKGRFTISRDNAKNTVYLQMNSLKPEDTALYYCNAYRRNYYYYQRHGYWGQGTQVTVSS,high polyreactivity
13,QVQLVESGGGLVQAGGSLRLSCADSGSTFGFYAMGWYRKAPGKERELVAAISSSGSTYYADSVKGRFTISRDNAKNTVYLQMNILKPEDTAFYSCGAHPGYYDYDYWGQGTQVTVSS,low polyreactivity
14,QVQLVESGGGLVQAGGSLRLSCADSGSTFGLYAMGGYRQSPGKEREMVAAITWGGGSTYYADSVKVRFTISRDNAKNTVYFQMNSLKPEDTAVYYCAASPIYPVYRRHGYWGQGTQVTVSW,high polyreactivity
15,QVQLVESGGGLVQAGGSLRLSCADSGSTFLYYAIVWYRQAPGKERELVASITGSGSNTYYADSVKGRFTISRDNAKNTVYLQMNSLKPEDTAVYYCASDPQSDIPSWLWYWGEYDYWGQGTQVTVSS,low polyreactivity
16,QVQLVESGGGLVQAGGSLRLSCADSGSTFNIYAMGWYRQAPGKERELVAAISSGGTTYYADSVKGRFTISRDNAKNTVYLQMNSLKPEDTAVYYCAALTSSLPAYGYWGQGTQVTVSS,low polyreactivity
17,QVQLVESGGGLVQAGGSLRLSCADSGSTFPYYTMGWYRQAPGKEREFVAAISRSTGRTSYADSVKGRFTISRDNAKNTVYLQMNSVKPEDSAVYDCAVRWYYYRDDTIYVLGRYDYWGQGTQVSVSS,high polyreactivity
18,QVQLVESGGGLVQAGGSLRLSCADSGSTFYRNAMGWYRQAPGKERELVASINNRGSTYYADSVKGRFTISRDNAKNTVYLQMNRLKPEDTAVYYFAATESWDYDYWGQGTQVTVSS,low polyreactivity
19,QVQLVESGGGLVQAGGSLRLSCADSGSTIFGNAMGWYRQAPGKERELVAAISYSGDSTYYADSVKGRFTISRDNAMNTVYLQMNSLKPEDTAVYYCAAGFVIKYDFWGQGTQVTVSS,low polyreactivity
20,QVQLVESGGGLVQAGGSLRLSCADSGSTLRRNAMGWYRQAPGKERELVAAISRTGASTYYADSVKGRFTISRDNAKNTVYLQMNSLKPEDTAVYYCAARANYIFFGMDYWGQGTQVTVSS,high polyreactivity
21,QVQLVESGGGLVQAGGSLRLSCADSGSTLYRYAMGWYRQAPGKERELVDAISSAGSTHYADSVKGRFTISRDNAKNTVYLQMNSLKPEDTAVYYCNAVRKTFDYNYWGQGTQVTVSS,high polyreactivity
